Assay results taken from US20230051304A1 (Regeneron, published 2023).

What follows are binders tested against T1, murine IL12 receptor complex (IL12Rβ1 and IL12Rβ2) (mouse, UniProt Q60837 20-738; P97378 24-874) (assay: flow cytometry on activated primary mouse T cells (CD25+ CD8+ CD90.2+), anti-human Fc detection, MFI).
T1 construct: whole, on cells; also called IL12 receptors beta 1 (IL12Rβ1) and beta 2 (IL12Rβ2); IL12Rb1 and IL12Rb2
Method: Spleens were harvested from C57BL/6 mice and dissociated manually. Splenocytes were stimulated by culturing for 48 hours in RPMI+10% FBS+2 mM L-glutamine/Pen/Strep in the presence of anti-CD3 and anti-CD28 activation beads (Thermo/11456D) at a 1:3 (beads:splenocytes) ratio and in the presence of 30 U/mL human IL-2 (proleukin). […] Cells were washed once before plating 200,000 cells per well in a 96-well plate and staining indicated concentration of test IL12-Fc fusion proteins or variant molecules for 2 hours on ice. Cells were washed twice before staining for the Fc portion using an ahuFC antibody (Jackson Immuno 109-136-170). Data was acquired using a BD LSRFortessa™ X-20 instrument. Data plots represent geometric mean fluorescence intensity (MFI) of the ahuFC signal from CD25+, CD8+CD90.2+ T cells.

T1 sequence (Q60837 20-738, chain 1 of 2): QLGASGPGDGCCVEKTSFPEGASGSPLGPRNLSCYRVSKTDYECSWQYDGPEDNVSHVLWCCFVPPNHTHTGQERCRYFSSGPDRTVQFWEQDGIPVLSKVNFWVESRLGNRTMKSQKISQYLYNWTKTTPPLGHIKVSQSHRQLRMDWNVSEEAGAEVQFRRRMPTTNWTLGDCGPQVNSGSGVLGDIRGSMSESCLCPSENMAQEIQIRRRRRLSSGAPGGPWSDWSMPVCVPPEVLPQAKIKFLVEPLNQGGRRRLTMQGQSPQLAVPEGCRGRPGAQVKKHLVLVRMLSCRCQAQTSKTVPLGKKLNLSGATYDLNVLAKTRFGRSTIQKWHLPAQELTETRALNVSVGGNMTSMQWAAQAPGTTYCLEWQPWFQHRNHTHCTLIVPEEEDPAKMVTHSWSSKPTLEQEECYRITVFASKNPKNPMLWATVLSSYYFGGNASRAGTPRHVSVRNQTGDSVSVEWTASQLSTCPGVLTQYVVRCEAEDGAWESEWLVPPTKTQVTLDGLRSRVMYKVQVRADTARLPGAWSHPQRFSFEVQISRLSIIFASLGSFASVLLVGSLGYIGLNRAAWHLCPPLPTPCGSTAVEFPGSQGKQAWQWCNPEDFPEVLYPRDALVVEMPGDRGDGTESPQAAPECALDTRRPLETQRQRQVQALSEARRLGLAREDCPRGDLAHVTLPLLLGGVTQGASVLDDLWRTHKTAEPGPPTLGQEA
T1 sequence (P97378 24-874, chain 2 of 2): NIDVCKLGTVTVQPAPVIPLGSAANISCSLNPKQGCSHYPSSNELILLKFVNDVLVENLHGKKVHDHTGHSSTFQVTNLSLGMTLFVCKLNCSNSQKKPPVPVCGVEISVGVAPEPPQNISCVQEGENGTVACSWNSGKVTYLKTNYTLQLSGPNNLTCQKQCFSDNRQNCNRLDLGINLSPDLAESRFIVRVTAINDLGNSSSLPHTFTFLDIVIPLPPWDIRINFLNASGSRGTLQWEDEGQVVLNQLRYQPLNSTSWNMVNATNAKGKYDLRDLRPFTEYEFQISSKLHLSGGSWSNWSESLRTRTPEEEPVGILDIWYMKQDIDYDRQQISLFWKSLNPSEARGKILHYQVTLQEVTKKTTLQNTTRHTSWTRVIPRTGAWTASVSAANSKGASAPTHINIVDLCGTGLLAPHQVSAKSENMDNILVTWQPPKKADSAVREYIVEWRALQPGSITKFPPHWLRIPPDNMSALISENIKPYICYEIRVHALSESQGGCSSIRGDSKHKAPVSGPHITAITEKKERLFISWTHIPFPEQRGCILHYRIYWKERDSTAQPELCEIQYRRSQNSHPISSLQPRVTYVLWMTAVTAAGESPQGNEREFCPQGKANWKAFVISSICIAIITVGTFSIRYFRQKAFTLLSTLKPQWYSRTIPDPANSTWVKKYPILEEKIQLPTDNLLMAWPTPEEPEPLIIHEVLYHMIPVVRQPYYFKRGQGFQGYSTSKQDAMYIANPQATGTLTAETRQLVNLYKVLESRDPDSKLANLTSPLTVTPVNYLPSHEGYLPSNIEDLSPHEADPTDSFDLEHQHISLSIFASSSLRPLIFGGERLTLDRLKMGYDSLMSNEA

Binder	binding result
Fc-p40-p35 x Fc (Fc fusion, hIgG4s(HoleStar) x hIgG4s(Knob)-p40-p35, murine IL12; also called Fc-p40-p35×Fc control; unmasked monovalent control) chain 1: ESKYGPPCPPCPAPPVAGPSVFLFPPKPKDTLMISRTPEVTCVVVDVSQEDPEVQFNWYVDGVEVHNAKTKPREEQFNSTYRVVSVLTVLHQDWLNGKEYKCKVSNKGLPSSIEKTISKAKGQPREPQVYTLPPSQEEMTKNQVSLSCAVKGFYPSDIAVEWESNGQPENNYKTTPPVLDSDGSFFLVSRLTVDKSRWQEGNVFSCSVMHEALHNRFTQKSLSLSPGK chain 2: ESKYGPPCPPCPAPPVAGPSVFLFPPKPKDTLMISRTPEVTCVVVDVSQEDPEVQFNWYVDGVEVHNAKTKPREEQFNSTYRVVSVLTVLHQDWLNGKEYKCKVSNKGLPSSIEKTISKAKGQPREPQVYTLPPSQEEMTKNQVSLWCLVKGFYPSDIAVEWESNGQPENNYKTTPPVLDSDGSFFLYSRLTVDKSRWQEGNVFSCSVMHEALHNHYTQKSLSLSLGKGGGGSGGGGSGGGGSMWELEKDVYVVEVDWTPDAPGETVNLTCDTPEEDDITWTSDQRHGVIGSGKTLTITVKEFLDAGQYTCHKGGETLSHSHLLLHKKENGIWSTEILKNFKNKTFLKCEAPNYSGRFTCSWLVQRNMDLKFNIKSSSSSPDSRAVTCGMASLSAEKVTLDQRDYEKYSVSCQEDVTCPTAEETLPIELALEARQQNKYENYSTSFFIRDIIKPDPPKNLQMKPLKNSQVEVSWEYPDSWSTPHSYFSLKFFVRIQRKKEKMKETEEGCNQKGAFLVEKTSTEVQCKGGNVCVQAQDRYYNSSCSKWACVPCRVRSGGGGSGGGGSGGGGSRVIPVSGPARCLSQSRNLLKTTDDMVKTAREKLKHYSCTAEDIDHEDITRDQTSTLKTCLPLELHKNESCLATRETSSTTRGSCLPPQKTSLMMTLCLGSIYEDLKMYQTEFQAINAALQNHNHQQIILDKGMLVAIDELMQSLNHNGETLRQKPPVGEADPYRVKMKLCILLHAFSTRVVTINRVMGYLSSA	binds
Fc-p40-p35 x Fc-IL12Rβ2(D1) (Fc fusion, Receptor-masked monovalent murine IL12; also called hIgG4s(HoleStar)-mIL12Rb2(D1) x hIgG4s(Knob)-mIL12p40-p35) chain 1: ESKYGPPCPPCPAPPVAGPSVFLFPPKPKDTLMISRTPEVTCVVVDVSQEDPEVQFNWYVDGVEVHNAKTKPREEQFNSTYRVVSVLTVLHQDWLNGKEYKCKVSNKGLPSSIEKTISKAKGQPREPQVYTLPPSQEEMTKNQVSLSCAVKGFYPSDIAVEWESNGQPENNYKTTPPVLDSDGSFFLVSRLTVDKSRWQEGNVFSCSVMHEALHNRFTQKSLSLSPGKGGGGSGGGGSGGGGSNIDVCKLGTVTVQPAPVIPLGSAANISCSLNPKQGCSHYPSSNELILLKFVNDVLVENLHGKKVHDHTGHSSTFQVTNLSLGMTLFVCKLNCSNSQKKPPVPVCGVEISVGV chain 2: ESKYGPPCPPCPAPPVAGPSVFLFPPKPKDTLMISRTPEVTCVVVDVSQEDPEVQFNWYVDGVEVHNAKTKPREEQFNSTYRVVSVLTVLHQDWLNGKEYKCKVSNKGLPSSIEKTISKAKGQPREPQVYTLPPSQEEMTKNQVSLWCLVKGFYPSDIAVEWESNGQPENNYKTTPPVLDSDGSFFLYSRLTVDKSRWQEGNVFSCSVMHEALHNHYTQKSLSLSLGKGGGGSGGGGSGGGGSMWELEKDVYVVEVDWTPDAPGETVNLTCDTPEEDDITWTSDQRHGVIGSGKTLTITVKEFLDAGQYTCHKGGETLSHSHLLLHKKENGIWSTEILKNFKNKTFLKCEAPNYSGRFTCSWLVQRNMDLKFNIKSSSSSPDSRAVTCGMASLSAEKVTLDQRDYEKYSVSCQEDVTCPTAEETLPIELALEARQQNKYENYSTSFFIRDIIKPDPPKNLQMKPLKNSQVEVSWEYPDSWSTPHSYFSLKFFVRIQRKKEKMKETEEGCNQKGAFLVEKTSTEVQCKGGNVCVQAQDRYYNSSCSKWACVPCRVRSGGGGSGGGGSGGGGSRVIPVSGPARCLSQSRNLLKTTDDMVKTAREKLKHYSCTAEDIDHEDITRDQTSTLKTCLPLELHKNESCLATRETSSTTRGSCLPPQKTSLMMTLCLGSIYEDLKMYQTEFQAINAALQNHNHQQIILDKGMLVAIDELMQSLNHNGETLRQKPPVGEADPYRVKMKLCILLHAFSTRVVTINRVMGYLSSA	binds
Fc-IL12Rβ1(D1)-p40-p35 x Fc (Fc fusion, Receptor-masked monovalent murine IL12; also called Fc x Fc-mIL12Rb1(D1)-mIL12p40-p35) chain 1: ESKYGPPCPPCPAPPVAGPSVFLFPPKPKDTLMISRTPEVTCVVVDVSQEDPEVQFNWYVDGVEVHNAKTKPREEQFNSTYRVVSVLTVLHQDWLNGKEYKCKVSNKGLPSSIEKTISKAKGQPREPQVYTLPPSQEEMTKNQVSLSCAVKGFYPSDIAVEWESNGQPENNYKTTPPVLDSDGSFFLVSRLTVDKSRWQEGNVFSCSVMHEALHNRFTQKSLSLSPGK chain 2: ESKYGPPCPPCPAPPVAGPSVFLFPPKPKDTLMISRTPEVTCVVVDVSQEDPEVQFNWYVDGVEVHNAKTKPREEQFNSTYRVVSVLTVLHQDWLNGKEYKCKVSNKGLPSSIEKTISKAKGQPREPQVYTLPPSQEEMTKNQVSLWCLVKGFYPSDIAVEWESNGQPENNYKTTPPVLDSDGSFFLYSRLTVDKSRWQEGNVFSCSVMHEALHNHYTQKSLSLSLGKGGGGSGGGGSGGGGSQLGASGPGDGCCVEKTSFPEGASGSPLGPRNLSCYRVSKTDYECSWQYDGPEDNVSHVLWCCFVPPNHTHTGQERCRYFSSGPDRTVQFWEQDGIPVLSKVNFWVESRLGNRTMKSQKISQYLYNWTKTTPPLGGGGSGGGGSGGGGSMWELEKDVYVVEVDWTPDAPGETVNLTCDTPEEDDITWTSDQRHGVIGSGKTLTITVKEFLDAGQYTCHKGGETLSHSHLLLHKKENGIWSTEILKNFKNKTFLKCEAPNYSGRFTCSWLVQRNMDLKFNIKSSSSSPDSRAVTCGMASLSAEKVTLDQRDYEKYSVSCQEDVTCPTAEETLPIELALEARQQNKYENYSTSFFIRDIIKPDPPKNLQMKPLKNSQVEVSWEYPDSWSTPHSYFSLKFFVRIQRKKEKMKETEEGCNQKGAFLVEKTSTEVQCKGGNVCVQAQDRYYNSSCSKWACVPCRVRSGGGGSGGGGSGGGGSRVIPVSGPARCLSQSRNLLKTTDDMVKTAREKLKHYSCTAEDIDHEDITRDQTSTLKTCLPLELHKNESCLATRETSSTTRGSCLPPQKTSLMMTLCLGSIYEDLKMYQTEFQAINAALQNHNHQQIILDKGMLVAIDELMQSLNHNGETLRQKPPVGEADPYRVKMKLCILLHAFSTRVVTINRVMGYLSSA	binds
Fc-p40-p35 x Fc-IL12Rβ1(D1) (Fc fusion, Receptor-masked monovalent murine IL12; also called hIgG4s(HoleStar)-mIL12Rb1(D1) x hIgG4s(Knob)-mIL12p40-p35) chain 1: ESKYGPPCPPCPAPPVAGPSVFLFPPKPKDTLMISRTPEVTCVVVDVSQEDPEVQFNWYVDGVEVHNAKTKPREEQFNSTYRVVSVLTVLHQDWLNGKEYKCKVSNKGLPSSIEKTISKAKGQPREPQVYTLPPSQEEMTKNQVSLSCAVKGFYPSDIAVEWESNGQPENNYKTTPPVLDSDGSFFLVSRLTVDKSRWQEGNVFSCSVMHEALHNRFTQKSLSLSPGKGGGGSGGGGSGGGGSQLGASGPGDGCCVEKTSFPEGASGSPLGPRNLSCYRVSKTDYECSWQYDGPEDNVSHVLWCCFVPPNHTHTGQERCRYFSSGPDRTVQFWEQDGIPVLSKVNFWVESRLGNRTMKSQKISQYLYNWTKTTPPL chain 2: ESKYGPPCPPCPAPPVAGPSVFLFPPKPKDTLMISRTPEVTCVVVDVSQEDPEVQFNWYVDGVEVHNAKTKPREEQFNSTYRVVSVLTVLHQDWLNGKEYKCKVSNKGLPSSIEKTISKAKGQPREPQVYTLPPSQEEMTKNQVSLWCLVKGFYPSDIAVEWESNGQPENNYKTTPPVLDSDGSFFLYSRLTVDKSRWQEGNVFSCSVMHEALHNHYTQKSLSLSLGKGGGGSGGGGSGGGGSMWELEKDVYVVEVDWTPDAPGETVNLTCDTPEEDDITWTSDQRHGVIGSGKTLTITVKEFLDAGQYTCHKGGETLSHSHLLLHKKENGIWSTEILKNFKNKTFLKCEAPNYSGRFTCSWLVQRNMDLKFNIKSSSSSPDSRAVTCGMASLSAEKVTLDQRDYEKYSVSCQEDVTCPTAEETLPIELALEARQQNKYENYSTSFFIRDIIKPDPPKNLQMKPLKNSQVEVSWEYPDSWSTPHSYFSLKFFVRIQRKKEKMKETEEGCNQKGAFLVEKTSTEVQCKGGNVCVQAQDRYYNSSCSKWACVPCRVRSGGGGSGGGGSGGGGSRVIPVSGPARCLSQSRNLLKTTDDMVKTAREKLKHYSCTAEDIDHEDITRDQTSTLKTCLPLELHKNESCLATRETSSTTRGSCLPPQKTSLMMTLCLGSIYEDLKMYQTEFQAINAALQNHNHQQIILDKGMLVAIDELMQSLNHNGETLRQKPPVGEADPYRVKMKLCILLHAFSTRVVTINRVMGYLSSA	binds
